Measurements from US20180155451A1 (published 2018).

T1: FcγRIIa H (FcγRIIa, type H allotype, His at position 131), extracellular domain with C-terminal His tag (human, UniProt P12318 34-217)
T1 construct: extracellular domain; Soluble receptor expressed in FreeStyle293 cells; analyte in Biacore; also called FcgRIIa H; 2aH; not shown: C-terminal His tag
T1 sequence (looked up): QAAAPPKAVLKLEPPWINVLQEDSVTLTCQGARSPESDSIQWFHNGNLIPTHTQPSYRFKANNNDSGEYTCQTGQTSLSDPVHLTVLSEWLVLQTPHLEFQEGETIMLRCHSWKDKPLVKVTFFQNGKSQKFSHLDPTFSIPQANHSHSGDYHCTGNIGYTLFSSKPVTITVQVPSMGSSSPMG

T2: FcγRIIb, extracellular domain with C-terminal His tag (human, UniProt P31994 43-217)
T2 construct: extracellular domain; Soluble receptor expressed in FreeStyle293 cells; analyte in Biacore; also called FcgRIIb; 2b; not shown: C-terminal His tag
T2 sequence (looked up): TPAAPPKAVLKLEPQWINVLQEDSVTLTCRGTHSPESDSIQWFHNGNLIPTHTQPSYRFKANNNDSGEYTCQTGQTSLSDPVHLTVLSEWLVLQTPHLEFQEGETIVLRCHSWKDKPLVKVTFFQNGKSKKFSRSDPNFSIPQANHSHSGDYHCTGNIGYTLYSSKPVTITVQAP

B1: GpH7-A5/GpH7-B3 variant D270_01G/GpL16-k0 (antibody, human IgG1, kappa)
heavy 1: not shown
heavy 2: not shown
light: DIVMTQSPLSLPVTPGEPASISCQASESLVHSNRNTYLHWYLQKPGQSPQLLIYKVSNRFSGVPDRFSGSGSGTDFTLKISRVEAEDVGVYYCSQNTHVPPTFGQGTKVEIERTVAAPSVFIFPPSDEQLKSGTASVVCLLNNFYPREAKVQWKVDNALQSGNSQESVTEQDSKDSTYSLSSTLTLSKADYEKHKVYACEVTHQGLSSPVTKSFNRGEC
notes: Heterodimerized IgG1; mutation only in the GpH7-B3 chain; also called He Ab
B2: GpH7-A5/GpH7-B3 variant D270_08L/GpL16-k0 (antibody, human IgG1, kappa)
heavy 1: not shown
heavy 2: not shown
light: B1 light
notes: as for B1
B3: GpH7-A5/GpH7-B3 variant D270_10E/GpL16-k0 (antibody, human IgG1, kappa)
heavy 1: not shown
heavy 2: not shown
light: B1 light
notes: as for B1
B4: GpH7-A5/GpH7-B3 variant D270_03V/GpL16-k0 (antibody, human IgG1, kappa)
heavy 1: not shown
heavy 2: not shown
light: B1 light
notes: as for B1
B5: GpH7-A5/GpH7-B3 variant D270_04F/GpL16-k0 (antibody, human IgG1, kappa)
heavy 1: not shown
heavy 2: not shown
light: B1 light
notes: as for B1
B6: GpH7-A5/GpH7-B3 variant D270_11K/GpL16-k0 (antibody, human IgG1, kappa)
heavy 1: not shown
heavy 2: not shown
light: B1 light
notes: as for B1
B7: GpH7-A5/GpH7-B3 variant D270_06M/GpL16-k0 (antibody, human IgG1, kappa)
heavy 1: not shown
heavy 2: not shown
light: B1 light
notes: as for B1
B8: GpH7-A5/GpH7-B3 variant D270_07I/GpL16-k0 (antibody, human IgG1, kappa)
heavy 1: not shown
heavy 2: not shown
light: B1 light
notes: as for B1
B9: GpH7-A5/GpH7-B3 variant D270_02A/GpL16-k0 (antibody, human IgG1, kappa)
heavy 1: not shown
heavy 2: not shown
light: B1 light
notes: as for B1
B10: GpH7-A5/GpH7-B3 variant Q295_02A/GpL16-k0 (antibody, human IgG1, kappa)
heavy 1: not shown
heavy 2: not shown
light: B1 light
notes: heterodimerized IgG1, mutation in one H chain only; also called He Ab
B11: GpH7-A5/GpH7-B3 variant S337_09D/GpL16-k0 (antibody, human IgG1, kappa)
heavy 1: not shown
heavy 2: not shown
light: B1 light
notes: as for B10
B12: GpH7-A5/GpH7-B3 variant S267_02A/GpL16-k0 (antibody, human IgG1, kappa)
heavy 1: not shown
heavy 2: not shown
light: B1 light
notes: as for B10
B13: GpH7-A5/GpH7-B3 variant S337_10E/GpL16-k0 (antibody, human IgG1, kappa)
heavy 1: not shown
heavy 2: not shown
light: B1 light
notes: as for B10
B14: GpH7-A5/GpH7-B3 variant S337_18N/GpL16-k0 (antibody, human IgG1, kappa)
heavy 1: not shown
heavy 2: not shown
light: B1 light
notes: as for B10
B15: GpH7-A5/GpH7-B3 variant K334_04F/GpL16-k0 (antibody, human IgG1, kappa)
heavy 1: not shown
heavy 2: not shown
light: B1 light
notes: as for B10
B16: GpH7-A5/GpH7-B3 variant K334_14T/GpL16-k0 (antibody, human IgG1, kappa)
heavy 1: not shown
heavy 2: not shown
light: B1 light
notes: as for B10
B17: GpH7-A5/GpH7-B3 variant K334_13S/GpL16-k0 (antibody, human IgG1, kappa)
heavy 1: not shown
heavy 2: not shown
light: B1 light
notes: as for B10
B18: GpH7-A5/GpH7-B3 variant K326_09D/GpL16-k0 (antibody, human IgG1, kappa)
heavy 1: not shown
heavy 2: not shown
light: B1 light
notes: as for B10
B19: GpH7-A5/GpH7-B3 variant K334_18N/GpL16-k0 (antibody, human IgG1, kappa)
heavy 1: not shown
heavy 2: not shown
light: B1 light
notes: as for B10
B20: GpH7-A5/GpH7-B3 variant S239_09D/GpL16-k0 (antibody, human IgG1, kappa)
heavy 1: not shown
heavy 2: not shown
light: B1 light
notes: as for B10
B21: GpH7-A5/GpH7-B3 variant K334_19Q/GpL16-k0 (antibody, human IgG1, kappa)
heavy 1: not shown
heavy 2: not shown
light: B1 light
notes: as for B10
B22: GpH7-A5/GpH7-B3 variant K326_15Y/GpL16-k0 (antibody, human IgG1, kappa)
heavy 1: not shown
heavy 2: not shown
light: B1 light
notes: as for B10

molecular target: T1, FcγRIIa H (FcγRIIa, type H allotype, …); assay: ratio of He/Con_2aH to He/Con_2b (FcγRIIa H over FcγRIIb), SPR

| He_2aH/2b (IIaH/IIb) | Binder |
| --- | --- |
| 1.72 | B1 |
| 1.41 | B2 |
| 1.34 | B3 |
| 1.56 | B4 |
| 1.42 | B5 |
| 2.17 | B6 |
| 1.54 | B7 |
| 1.54 | B8 |
| 1.58 | B9 |

molecular target: T3, FcγRIIIa extracellular domain with C-terminal His tag (human, UniProt P08637 17-208); assay: SPR, relative to GpH7-A5/GpH7-B3/GpL16-k0
T3 construct: extracellular domain; also called FcgRIIIa; 3a
T3 sequence (P08637 17-208): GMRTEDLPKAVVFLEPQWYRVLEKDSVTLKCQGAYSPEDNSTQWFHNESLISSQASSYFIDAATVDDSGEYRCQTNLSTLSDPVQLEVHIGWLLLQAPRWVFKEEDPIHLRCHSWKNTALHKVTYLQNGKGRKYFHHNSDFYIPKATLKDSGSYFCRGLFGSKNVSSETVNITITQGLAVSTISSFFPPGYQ

| He/Con_3a | Binder |
| --- | --- |
| 106 % of control (=100) | B10 |
| 110 % of control (=100) | B11 |
| 150 % of control (=100) | B12 |
| 105 % of control (=100) | B13 |
| 104 % of control (=100) | B14 |
| 148 % of control (=100) | B15 |
| 141 % of control (=100) | B16 |
| 145 % of control (=100) | B17 |
| 134 % of control (=100) | B18 |
| 136 % of control (=100) | B19 |
| 166 % of control (=100) | B20 |
| 136 % of control (=100) | B21 |
| 112 % of control (=100) | B22 |

molecular target: T2, FcγRIIb, extracellular domain with …; assay: SPR (Biacore), captured antibody, FcγR as analyte

| He/Con_2b | Binder |
| --- | --- |
| 30.5 relative, GpH7-A5/GpH7-B3/GpL16-k0 = 100 | B1 |
| 53.6 relative, GpH7-A5/GpH7-B3/GpL16-k0 = 100 | B2 |
| 76.5 relative, GpH7-A5/GpH7-B3/GpL16-k0 = 100 | B3 |
| 39.5 relative, GpH7-A5/GpH7-B3/GpL16-k0 = 100 | B4 |
| 53.1 relative, GpH7-A5/GpH7-B3/GpL16-k0 = 100 | B5 |
| 20.3 relative, GpH7-A5/GpH7-B3/GpL16-k0 = 100 | B6 |
| 48.2 relative, GpH7-A5/GpH7-B3/GpL16-k0 = 100 | B7 |
| 41.5 relative, GpH7-A5/GpH7-B3/GpL16-k0 = 100 | B8 |
| 48.3 relative, GpH7-A5/GpH7-B3/GpL16-k0 = 100 | B9 |

molecular target: T1, FcγRIIa H (FcγRIIa, type H allotype, …); assay: SPR (Biacore), captured antibody, FcγR as analyte

| He/Con_2aH | Binder |
| --- | --- |
| 52.5 relative, GpH7-A5/GpH7-B3/GpL16-k0 = 100 | B1 |
| 75.8 relative, GpH7-A5/GpH7-B3/GpL16-k0 = 100 | B2 |
| 102 relative, GpH7-A5/GpH7-B3/GpL16-k0 = 100 | B3 |
| 61.8 relative, GpH7-A5/GpH7-B3/GpL16-k0 = 100 | B4 |
| 75.4 relative, GpH7-A5/GpH7-B3/GpL16-k0 = 100 | B5 |
| 44 relative, GpH7-A5/GpH7-B3/GpL16-k0 = 100 | B6 |
| 74.4 relative, GpH7-A5/GpH7-B3/GpL16-k0 = 100 | B7 |
| 64 relative, GpH7-A5/GpH7-B3/GpL16-k0 = 100 | B8 |
| 76.4 relative, GpH7-A5/GpH7-B3/GpL16-k0 = 100 | B9 |
